{"source": "the RNAGym collection of RNA variant scans (doi:10.1101/gr.219683.116)", "parents": {"B1": {"name": "mRNA-splicing (parent)", "chain": "AGUUGCUGCUGGGAGCUCCAGCACAGUGAAAUGGACAGAAGGGCAGAGCAA"}}, "data": [{"variants_of": "B1", "assay": "exon inclusion enrichment index; higher = more inclusion; WT1 exon 5 minigene, HEK293", "values": [{"variant": "G5C C6U G8C C9U U10C A25U G26U", "exon inclusion enrichment index": 1.7}, {"variant": "G5C C6U G8C C9U U10C A25U G26C", "exon inclusion enrichment index": 2.38}, {"variant": "G5C C6U G8C C9U U10C A25U G26A", "exon inclusion enrichment index": 2.23}, {"variant": "G5C C6U G8C C9U U10C A40C", "exon inclusion enrichment index": 2.94}, {"variant": "G5C C6U G8C C9U U10C A40G", "exon inclusion enrichment index": 1.61}, {"variant": "G5C C6U G8C C9U U10A", "exon inclusion enrichment index": 0.186}, {"variant": "G5C C6U G8C C9U U10C", "exon inclusion enrichment index": 2.2}, {"variant": "G5C C6U G8C C9U U10C A14G G15C", "exon inclusion enrichment index": 0.826}, {"variant": "G5C C6U G8C C9U U10C A14G G15A", "exon inclusion enrichment index": 1.17}, {"variant": "G5C C6U G8C C9U U10C A14G G15U", "exon inclusion enrichment index": 0.546}, {"variant": "G5C C6U G8C C9U U10C A20G", "exon inclusion enrichment index": 2.69}, {"variant": "G5C C6U G8C C9U U10C A20C", "exon inclusion enrichment index": 1.41}, {"variant": "G5C C6U G8C C9U U10C A20U", "exon inclusion enrichment index": 2.17}, {"variant": "G5C C6U G8C C9U U10C A14U G15U", "exon inclusion enrichment index": 0.556}, {"variant": "G5C C6U G8C C9U U10C A14U G15A", "exon inclusion enrichment index": 0.472}, {"variant": "G5C C6U G8C C9U U10C A14U G15C", "exon inclusion enrichment index": 0.66}, {"variant": "G5C C6U G8C C9U U10C A29G A30U", "exon inclusion enrichment index": 0.538}, {"variant": "G5C C6U G8C C9U U10C A29G A30G", "exon inclusion enrichment index": 1.37}, {"variant": "G5C C6U G8C C9U U10C A29G A30C", "exon inclusion enrichment index": 0.838}, {"variant": "G5C C6U G8C C9U U10C A25U", "exon inclusion enrichment index": 2.6}, {"variant": "G5C C6U G8C C9U U10C A25G", "exon inclusion enrichment index": 3.66}, {"variant": "G5C C6U G8C C9U U10C A25C", "exon inclusion enrichment index": 3.42}, {"variant": "G5C C6U G8C C9U U10C A40G G41A", "exon inclusion enrichment index": 0.782}, {"variant": "G5C C6U G8C C9U U10C A40G G41C", "exon inclusion enrichment index": 3.24}, {"variant": "G5C C6U G8C C9U U10C A40G G41U", "exon inclusion enrichment index": 1.75}, {"variant": "G5C C6G U7G G8U U10C", "exon inclusion enrichment index": 1.74}, {"variant": "G5C C6U G8C C9U U10C A29C A30C", "exon inclusion enrichment index": 2.52}, {"variant": "G5C C6U G8C C9U U10C A29C A30G", "exon inclusion enrichment index": 3.25}, {"variant": "G5C C6U G8C C9U U10C A29C A30U", "exon inclusion enrichment index": 1.18}, {"variant": "G5C C6U G8C", "exon inclusion enrichment index": 1.8}, {"variant": "G5C C6U G8C C9U U10C A30C A31G", "exon inclusion enrichment index": 3.01}, {"variant": "G5C C6U G8C C9U U10C A30C A31U", "exon inclusion enrichment index": 2.1}, {"variant": "G5C C6U G8C C9U U10C A30C A31C", "exon inclusion enrichment index": 2.9}, {"variant": "G5C C6U G8C C9U U10C A37G G38C", "exon inclusion enrichment index": 2.08}, {"variant": "G5C C6U G8C C9U U10C A37G G38U", "exon inclusion enrichment index": 0.627}, {"variant": "G5C C6U G8C C9U U10C A37G G38A", "exon inclusion enrichment index": 1.79}, {"variant": "G5C C6U G8C C9U U10C A31G U32C", "exon inclusion enrichment index": 3.89}, {"variant": "G5C C6U G8C C9U U10C A31G U32A", "exon inclusion enrichment index": 3.83}, {"variant": "G5C C6U G8C C9U U10C A31G U32G", "exon inclusion enrichment index": 1.04}, {"variant": "G5C C6U G8C C9G", "exon inclusion enrichment index": 3.5}, {"variant": "G5C C6U G8C C9A", "exon inclusion enrichment index": 1.7}, {"variant": "G5C C6U G8C C9U", "exon inclusion enrichment index": 1.16}, {"variant": "G5C C6U G8C C9U U10C A39G", "exon inclusion enrichment index": 0.96}, {"variant": "G5C C6U G8C C9U U10C A39C", "exon inclusion enrichment index": 0.436}, {"variant": "G5C C6U G8C C9U U10C A39U", "exon inclusion enrichment index": 0.0783}, {"variant": "G5C C6U G8C C9U U10C A31C U32A", "exon inclusion enrichment index": 1.46}, {"variant": "G5C C6U G8C C9U U10C A31C U32C", "exon inclusion enrichment index": 3.49}, {"variant": "G5C C6U G8C C9U U10C A31C U32G", "exon inclusion enrichment index": 2.49}, {"variant": "G5C C6U G8C C9U U10C A14C", "exon inclusion enrichment index": 1.3}, {"variant": "G5C C6U G8C C9U U10C A14U", "exon inclusion enrichment index": 0.661}, {"variant": "G5C C6U G8C C9U U10C A14G", "exon inclusion enrichment index": 1.2}, {"variant": "G5C C6U G8C C9U U10C A37G", "exon inclusion enrichment index": 2.83}, {"variant": "G5C C6U G8C C9U U10C A37C", "exon inclusion enrichment index": 3.08}, {"variant": "G5C C6U G8C C9U U10C A37U", "exon inclusion enrichment index": 1.73}, {"variant": "G5C C6G U7G C9A", "exon inclusion enrichment index": 1.02}, {"variant": "G5C C6G U7G G8C C9U U10C", "exon inclusion enrichment index": 2.15}, {"variant": "G5C C6U G8C C9U U10A G11U", "exon inclusion enrichment index": 0.953}, {"variant": "G5C C6U G8C C9U U10A G11A", "exon inclusion enrichment index": 0.661}, {"variant": "G5C C6U G8C C9U U10A G11C", "exon inclusion enrichment index": 1.84}, {"variant": "G5C C6U G8C C9U U10C A29U A30G", "exon inclusion enrichment index": 2.16}, {"variant": "G5C C6U G8C C9U U10C A29U A30C", "exon inclusion enrichment index": 1.51}, {"variant": "G5C C6U G8C C9U U10C A29U A30U", "exon inclusion enrichment index": 0.629}, {"variant": "G5C C6G U7C U10G", "exon inclusion enrichment index": 1.86}, {"variant": "G5C C6U G8C C9U U10C A39C A40U", "exon inclusion enrichment index": 1.13}, {"variant": "G5C C6U G8C C9U U10C A39C A40C", "exon inclusion enrichment index": 2.43}, {"variant": "G5C C6U G8C C9U U10C A39C A40G", "exon inclusion enrichment index": 2.03}, {"variant": "G5C C6U G8C C9U U10C A35G", "exon inclusion enrichment index": 0.766}, {"variant": "G5C C6U G8C C9U U10C A35C", "exon inclusion enrichment index": 0.541}, {"variant": "G5C C6U G8C C9U U10C A35U", "exon inclusion enrichment index": 0.452}, {"variant": "G5C C6U G8C C9U G11C", "exon inclusion enrichment index": 2.09}, {"variant": "G5C C6U G8C C9U G11U", "exon inclusion enrichment index": 0.905}, {"variant": "G5C C6U G8C C9U G11A", "exon inclusion enrichment index": 0.125}, {"variant": "G5C C6U G8C C9U U10C A23C C24G", "exon inclusion enrichment index": 3.11}, {"variant": "G5C C6U G8C C9U U10C A23C C24U", "exon inclusion enrichment index": 0.867}, {"variant": "G5C C6U G8C C9U U10C A23C C24A", "exon inclusion enrichment index": 2.31}, {"variant": "G5C C6U G8C C9U U10C A35U C36G", "exon inclusion enrichment index": 0.181}, {"variant": "G5C C6U G8C C9U U10C A35U C36U", "exon inclusion enrichment index": 0.0294}, {"variant": "G5C C6U G8C C9U U10C A35U C36A", "exon inclusion enrichment index": 0.00287}, {"variant": "G5C C6U G8A C9A U10C", "exon inclusion enrichment index": 0.564}, {"variant": "G5C C6G U7G U10C", "exon inclusion enrichment index": 1.51}, {"variant": "G5C C6U G8C C9U U10C A25C G26C", "exon inclusion enrichment index": 2.25}, {"variant": "G5C C6U G8C C9U U10C A25C G26U", "exon inclusion enrichment index": 2.7}, {"variant": "G5C C6U G8C C9U U10C A25C G26A", "exon inclusion enrichment index": 3.25}]}]}
